According to IntAct's records for PubMed 7759517:

B1: Dual specificity mitogen-activated protein kinase kinase 5 (Homo sapiens), Q13163 (parent)
chain: MLWLALGPFPAMENQVLVIRIKIPNSGAVDWTVHSGPQLLFRDVLDVIGQVLPEATTTAFEYEDEDGDRITVRSDEEMKAMLSYYYSTVMEQQVNGQLIEPLQIFPRACKPPGERNIHGLKVNTRAGPSQHSSPAVSDSLPSNSLKKSSAELKKILANGQMNEQDIRYRDTLGHGNGGTVYKAYHVPSGKILAVKVILLDITLELQKQIMSELEILYKCDSSYIIGFYGAFFVENRISICTEFMDGGSLDVYRKMPEHVLGRIAVAVVKGLTYLWSLKILHRDVKPSNMLVNTRGQVKLCDFGVSTQLVNSIAKTYVGTNAYMAPERISGEQYGIHSDVWSLGISFMELALGRFPYPQIQKNQGSLMPLQLLQCIVDEDSPVLPVGEFSEPFVHFITQCMRKQPKERPAPEELMGHPFIVQFNDGNAAVVSMWVCRALEERRSQQGPP

Variants of: B1
Conditions: with mk07_human MAPK7, Q13164
mk07_human MAPK7, Q13164, sequence (Q13164 whole entry, looked up): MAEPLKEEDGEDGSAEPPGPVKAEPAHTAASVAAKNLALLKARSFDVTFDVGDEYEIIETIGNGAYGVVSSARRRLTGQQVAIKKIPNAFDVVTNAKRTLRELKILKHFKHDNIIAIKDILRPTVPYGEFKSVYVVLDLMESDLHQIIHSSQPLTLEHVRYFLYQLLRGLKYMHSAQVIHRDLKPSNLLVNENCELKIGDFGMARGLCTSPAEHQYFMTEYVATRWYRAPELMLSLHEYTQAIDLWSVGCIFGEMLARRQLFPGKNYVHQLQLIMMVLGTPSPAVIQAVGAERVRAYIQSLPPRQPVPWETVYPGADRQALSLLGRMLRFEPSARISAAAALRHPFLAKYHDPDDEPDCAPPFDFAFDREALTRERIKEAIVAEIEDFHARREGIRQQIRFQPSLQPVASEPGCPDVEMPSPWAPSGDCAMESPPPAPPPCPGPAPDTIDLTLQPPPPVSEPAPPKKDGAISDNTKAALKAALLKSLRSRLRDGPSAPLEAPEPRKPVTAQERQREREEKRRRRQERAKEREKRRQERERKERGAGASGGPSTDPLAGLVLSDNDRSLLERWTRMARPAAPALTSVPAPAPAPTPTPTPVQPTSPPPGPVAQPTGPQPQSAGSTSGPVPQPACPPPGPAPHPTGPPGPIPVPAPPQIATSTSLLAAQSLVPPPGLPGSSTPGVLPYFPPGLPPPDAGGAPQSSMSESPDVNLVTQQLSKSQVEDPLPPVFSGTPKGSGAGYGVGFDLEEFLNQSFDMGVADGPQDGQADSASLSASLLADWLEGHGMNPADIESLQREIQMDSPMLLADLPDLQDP

Variant	effect of a mutation on the interaction
S311A;T315A	increasing interaction

Variants of: B1
Conditions: with mk07_human MAPK7, Q13164
Remark: another data set of the same source

Variant	effect of a mutation on the interaction
K195M	increasing interaction
